These results are taken from the nanobody polyreactivity screen of Harvey et al. (2022).

This series in a line: yeast display, Sf9 membrane polyspecificity reagent, FACS + sequencing; frameworks hold sequencing errors. The gist of the method: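 In a synthetic yeast display library (Saccharomyces cerevisiae BJ5465), nanobody expression was induced with galactose for 36–48 hours. FACS gates were set low and high (top ~1%) using anti-HA fluorescence for expression and streptavidin fluorescence for binding of the Sf9 membrane reagent. Each polyreactivity label is drawn from the gate of origin.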
For “AVQLVESGGGLVQAGGSLRLSCAASGSTCTGMTWDGRHRRLGRKELVAGIRSAGSTNYADSVKGRFTISGDNAKITVYLQLNSLKPEDTAVYYCAKDYRWVWRKYGYWGQGTQVTVSS”, the “polyreactivity (PSR sort gate)” value was “low polyreactivity”.

Regarding “EDQLEESGGGLVQAGGSLRLSCAASGLIFPSYVMGWYRQAPGKERELVASISRVGSTYADSVKGRFTISRDNAKNTVYLQMNSLKPEDTAVYYCAKQVVWRGFRGLDYWGQGTQVTLSS”, the “polyreactivity (PSR sort gate)” value is “high polyreactivity”.

As for “EEELVESGGGLVQAGGRLRLSCAASGRIFDYNAMGWYRQAPAKQRELVAVIDYSGDSTYYADSVKGRFTISRDNAKNTVYLQLISLKPEDTAVYYCNADSRYSYSDYGYWGQGTQVNVSS”, the “polyreactivity (PSR sort gate)” value is “low polyreactivity”.

On to “EEELVESGGGLVQPGGSLRLSCAASGSIFTHYSMGWYRQAPGKERELVAAISWSGGSTYYADSVKGRFTISRDNAKYTVSLQMNSLKAEDTAVYYCAAETYWGDDYWGQGTQVTVSS”, for which the “polyreactivity (PSR sort gate)” value is recorded as “high polyreactivity”.

In the case of “EVQLGESGGGLVQAGGSLRLSCAASGSTFNTNAMGWYRQAPGKERELVAAISWSSTRTYYADSVKGRFTISRDNAKNTVYLQINSLKPEDTAVYYCAGRSVGGRYFKGNYWGHGTQVTVSS”, the “polyreactivity (PSR sort gate)” value is reported as “high polyreactivity”.

“EVQLVESGGGLVQAGGSLRLICAASGSIFRDNAMGWYRQAPGKERELVARITWSGTRTYYADSVKGRFTISRDKAKNTVYLQMNSLKPEDTAVYYCNKDRRTIPPSGNDYWGQGTQVTVSS”: the “polyreactivity (PSR sort gate)” value is on record as “low polyreactivity”.

On to “EVQLVESGGGLVQAGGSLRLSCAASGRTFLVNAMGWSRPAPGKERELVAAISRSSGRTYYADSVKGRFTISRDNAKNTVYLQMNSLKPEDTAVYYCAARGYWGQGTQVTVSS”, for which the “polyreactivity (PSR sort gate)” value is listed as “high polyreactivity”.

With “EVQLVESGGGLVQAGGSLRLSCAASGSIFYTNTMGWYRQAPGKERELVATGSTYYADSVKGRFTISRDNAKNTVYLQMNSLKPEDTAVYYCAKRGDFLTTRYESGSAASDYWGQGTQVTVSS”, the “polyreactivity (PSR sort gate)” value was “low polyreactivity”.

With “EVQLVESGGGLVQAGGSLRLSCAASGTSFLLYAMGWYRQARGKERELLAAISSSGARTYYADSVKGRCTISRDNAKYTVYLQMNSLKPEDTAVYYCAASRRAYRSSYVSPFGYWGQGTQVTGSS”, the “polyreactivity (PSR sort gate)” value is “high polyreactivity”.

As for “EVQLVESGGGLVQAGGSLRLSCAAYGFTFVVYDMGWYRQAPGKERELVAAISRRGGNTYYADSVKGRFTISRDNAKNTVYLQMNSLKPEDTAVYYCNAVRTRKAYDYWGQGTQVTVSS”, the “polyreactivity (PSR sort gate)” value is recorded as “low polyreactivity”.

As to “EVQLVESGGGLVQAGGSLRLSCADSGGIFIFYALGWYRQAPWKEREFVASIRSNVGSTYYADSVKGRFTISRDNAKNTVYLQMNSLNPEDTAVYYCNSRYYWYRGYDYWGQGTQVTVSS”, the “polyreactivity (PSR sort gate)” value was “high polyreactivity”.

For “EVQLVESGGGLVQSGGSLRLSSAASGSIFRYYAMGWYRQAPGKERELVAAITGSTGRTYYADSVKGRFTISRDNAKNTVYLQMNSLKPEDTAVYYCAARSRYYEYDYWGQGTQVTVSS”, the “polyreactivity (PSR sort gate)” value is on record as “low polyreactivity”.

With “HAQLQESGGGLVQAGGSLRRSCAASGSIFRFSGMGWYRRAPGKERELVASIGFGSITYYADRVKGRFTISRDNANKTVYLQMNSLKPEDTAVYYCAVQVQDESWLDYWGQGTQVTVSC”, the “polyreactivity (PSR sort gate)” value is recorded as “low polyreactivity”.

With “HDQLVESGGGLVQAGGSLRLSCAASGNTFIYYAMGWYRQAPGKEREMVAAISRSGGSTYYADSVKGRFTISRDNAKNTVYLQMNSLKPEDTAVYYCAAEATKWIGVVTMDYWGQGTQVTVSS”, the “polyreactivity (PSR sort gate)” value is on record as “high polyreactivity”.

Consider “HFQLVESGGGLVQAGGSLRLSCAASGFTFNDMGWYRLATGKERELVARIDSDDTTNYADSVKGRFTISRDNAKKTVYVLMNSLKPEDTAVYYCNKDYAWLSYQDYDYWGQGTQVTVSS”, for which the “polyreactivity (PSR sort gate)” value was “low polyreactivity”.

“HFQLVESGGGLVQAGGSLRLSCAASGSSYSNYAMGWYRQAPGKEREMVAAISSSGSTYYADSVKGRFTISRDNAKNTVYLQLHRLKPEDTAVYYCAAGKDRRTSRYRYDSWGQGTQVTVSS”: the “polyreactivity (PSR sort gate)” value was “high polyreactivity”.

Take “HGQLVESGGGLVQAGGSLRLSCAASGRTFRYYAMGWYREAPGKERELVAAITGSGGSTYYADSVKGRFTISRDNAQNTVYLQMNSLKPEDTAVYYCATRWALRWRGGYWGQGTQVTVSS”: the “polyreactivity (PSR sort gate)” value is listed as “high polyreactivity”.

Regarding “HLQLVESGGGLVQAGGSLRLSCAASGSILNFYAMGWYRQAPGTERELVAAISSSGGSTYYADSVKGRFTISRDNAKNTVYLQMNILQPEDTAVYYCNADYSPSSDSEYGYWGQGTQVTVSS”, the “polyreactivity (PSR sort gate)” value is “low polyreactivity”.

In the case of “HLQLVESGGVLVQAGGSLRLSCASSGSTFRSNVMGWYRQAPGKAREFVAAITSSSATTYYADSVKGRFTISRDNAKNTVYLLINSLKPEDTAVYYCAAGGRKAGPAGGQYYYWGQGTQVTVSS”, the “polyreactivity (PSR sort gate)” value is “low polyreactivity”.

For the sequence “HLQLVETVGGLDQAGGSLRLSFAASGITSYGYAKGGYSEAAANESELVASISWTGGNTYADSLKGRFTISRDNAKNSVYLQMNSLKPEDSAVYYSNAGRSWDFLYCYEYWGQGTQVTVSS”, the “polyreactivity (PSR sort gate)” value was “low polyreactivity”.

Turning to “HSAVGLVQAGVRHPLSCAASGRMFKYNAMRWYRQAPGKERELVAAISYSGGSTYYADSVKGRFTISRDNEMYTVYLQMNSLKPEDTAVYYCAKATSTREPKYGYWGQGTHVTVSS”, the “polyreactivity (PSR sort gate)” value is “high polyreactivity”.

Turning to “HVELVQSCGGLVQAGGSLRLSSAASGRIFSPYVMGWFRQAPGKVRQLVAASRNRGGSTYYAAAVKWRFTISRDNATNTVYIQMNSLKPEDTAVYYCNAPDVSRPLRGRYDYWGQGTQVTVSS”, the “polyreactivity (PSR sort gate)” value is recorded as “high polyreactivity”.

In the case of “HVQHVDSGAGLVQAGGSLRLSCAASGRTFVGYAMGWYRQAPGKEREFVADITYDSGSTYYADSVKGRFTISRDNAKNTVYLQMNSLKPEDTAVYYCNAKYYYWWYDVDYWGQGTQVTVSS”, the “polyreactivity (PSR sort gate)” value is listed as “high polyreactivity”.

As to “HVQHVDSGGGLVQAGGSLRLSFAAYGRIFVNNAMGWYRQATGKERELVAAISQNGGRTYYADSVKGRFTISRDNAKNTVYLQMNSLKPEDTAVYYCAAGQARAGLIGGYWGQGTQVTVSS”, the “polyreactivity (PSR sort gate)” value was “high polyreactivity”.

With “HVQIVESGGGLVQAGGSLRLSCADSGSTFLGYDMGWFRQAPGKVRELVATISKSGGSTHYADSVKGRFTISRDNAKNTVSLQMNSLKPEETAVYYCAADYYPRYYKNTGEYDYWGQGTQVTVSS”, the “polyreactivity (PSR sort gate)” value is on record as “low polyreactivity”.

For the sequence “HVQLQERGGGLVQAGGSLRPSCAARGTISDGVPMGWYRQAPGEERELVATTVLGATTNYADSVKGRFTISRGNAKNTVYLQMNSLNPEETAVYYCAAPLRYDKGFSYWGQGTQVTVSS”, the “polyreactivity (PSR sort gate)” value is “low polyreactivity”.

“HVQLQESGGGLVQAGGDLRLSCAASGNIFRDYIMGWYRQAPGKEREFVAGIDRGANTNYADSVKGRFTISRDNAKNTVYLQMNSLIPEDTAVYYCAVHTAIVPDFIYWGQGTQVTVSS”: the “polyreactivity (PSR sort gate)” value was “low polyreactivity”.

Take “HVQLQESGGGLVQAGGSLRLSCAASGNISYSRNMGWYRQAPGKERELVAAIDRGAITYYADSVQGRFTISRDNAKNTVYLQIYSLKPEDTAVYYCAAEYHDRWDHLYWGQGTQVTVSS”: the “polyreactivity (PSR sort gate)” value is recorded as “high polyreactivity”.

On to “HVQLQESGGGLVQAGGSLRLSCAASGSNFRWSPMGWYRLAPGKEREFVAGINRGGITNYADSVKGRFTSSRDNAKNTVYLQMNSLKPEDTALYYCAAIAYPDLPTYFDYDSDYFYRGQGTQVTVSS”, for which the “polyreactivity (PSR sort gate)” value was “low polyreactivity”.

In the case of “HVQLQESGGVLVQAGGSLRLSCAASGSIFQATYMGWYRQAPGKEREFVASITYGSITNYADSVKGRFTIGRDNAKDTLYLQMNSLKPEDTAVYYCADDRHYIPAFHYWGQGTQVTVSS”, the “polyreactivity (PSR sort gate)” value is recorded as “low polyreactivity”.

On to “HVQLQETGGGLVQAGGCLSCTASGTIFGQGDMGWYRPAPGKERELVATINDGASTYYADSVKGRFTISRDKAKNTVYLQKNSLKPDDTAVNYCAVFTDITTYFGYWGQGTQVTVSS”, for which the “polyreactivity (PSR sort gate)” value is listed as “low polyreactivity”.

Take “HVQLVDSGGGLVQAGGSLRLSCAASGFIFRRYAMGWYRQAPGKERELVAAIRSDGSTNYADSVKGRFTISRDNAKNTVYLQLNSLKPEDTAVYYCAATYYSYTWFSQYYYWGQGTQVTVSS”: the “polyreactivity (PSR sort gate)” value is given as “high polyreactivity”.

Consider “HVQLVESAGGLVQAGGSLRLSCAASGRIFAVYAMGWYRQAPGKERELVAAISYIGGSTYYADSVKGRFTISRDNAKNTVYLQMNSLKPEDTAVYYCNKDIPKRQYVVYRTAYEYDYWGQGTQVSVSS”, for which the “polyreactivity (PSR sort gate)” value is listed as “low polyreactivity”.

Regarding “HVQLVESAGGLVQEGGSLRVSCAASGFTFSFYAMGGYRQAPGKERELVAAISWNSGSTYYADSVKGRFTISRDNAKNTVYLQMNSLKPADTAVYYCAADVQRYRGITYYYWGQGTPVTVSS”, the “polyreactivity (PSR sort gate)” value is listed as “high polyreactivity”.

Consider “HVQLVESGGGFVQAGGSLRLSCAASGITFVKYTMGWYRQAPGKERELVAASSRSDGRTYYADSVKGRFTISRDNAKNSVYLQMNSLKPEDTAVYYCNAVYGVIGKGYNYWGQGTQVTVSS”, for which the “polyreactivity (PSR sort gate)” value is on record as “high polyreactivity”.

As to “HVQLVESGGGIVQAGGSLRLSCAASGLIFSYYAMGWYRQAPGKERELVAAINSGGSTYYADSVKGRFTISRDNAKNTVYLQMNSLKPEDSAVYYCAAHLWYHGHLFDYWGQGTQVTVSS”, the “polyreactivity (PSR sort gate)” value is reported as “high polyreactivity”.

In the case of “HVQLVESGGGIVQAGGSLRLSCAASGLIVINYAMGRYRQARGKERELVATIRYCGGSTNYADSVKGRFTISRDNAKNTVYLQMNSLKPEDNAVYYCNAGYYPTGYDYWGQGTQVTVSS”, the “polyreactivity (PSR sort gate)” value was “low polyreactivity”.

For “HVQLVESGGGLVHAGGSLRLSCAASGAIFWVNAMGWYREAPGKERELVADISRSGANTYYADSVKGRFTISRDNAKNTVYLQMTSLNPEDTAVYYCAKGVFYPWWYVQPEHDYWGQGTQVTVSS”, the “polyreactivity (PSR sort gate)” value is “high polyreactivity”.

Consider “HVQLVESGGGLVQAGGSLPLSCAASGRTFDHYAMGWYRQAPGKEREFVAAITSGGSTYYADSVKGRFRISRDNAKNTVYLQMNSLKPVDTAVYYCNNDSSFWGYYIAQVNERDYWGQGTQVTVSS”, for which the “polyreactivity (PSR sort gate)” value was “low polyreactivity”.

On to “HVQLVESGGGLVQAGGSLRLICAASGFIFRFNAMGWYRQAPGKERELVAAISGSGGITYYADSVKGRFTISRDNAKNTVYLQMNSLKPEDTAVYYCAARPLFGWRGYNYWGQGTQVTVSS”, for which the “polyreactivity (PSR sort gate)” value was “high polyreactivity”.

As to “HVQLVESGGGLVQAGGSLRLRCAASGITFAEYTMGWYRQAPGKERELVAAISRRGGSTYYADSVKGRLTISRDNAKNTVYLQMNSLKPEDTAVYYCNALFRYSRDYWGQGTQVTVSS”, the “polyreactivity (PSR sort gate)” value is recorded as “high polyreactivity”.
